Experimental data taken from paper PMC12685124 (Proceedings of the National Academy of Sciences of the …, 2025).

Assays:
[1] = target: T1, mesencephalic astrocyte-derived neurotrophic factor (Manf), recombinant (UniProt P55145 25-182); test: ELISA
[2] = target: T2, brain-derived neurotrophic factor (BDNF) (UniProt P23560 19-247); test: MST
T2 sequence (looked up): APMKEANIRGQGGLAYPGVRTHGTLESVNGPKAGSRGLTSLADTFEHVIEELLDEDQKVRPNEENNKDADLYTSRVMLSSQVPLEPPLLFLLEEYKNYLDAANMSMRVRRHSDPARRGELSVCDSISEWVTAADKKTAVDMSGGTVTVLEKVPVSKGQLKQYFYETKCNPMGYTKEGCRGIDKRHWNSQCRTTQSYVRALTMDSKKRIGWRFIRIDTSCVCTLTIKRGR

[3] = target: T1, mesencephalic astrocyte-derived …; test: MST

Kd [1]: 14.5 ± 1.17 nM | Kd [2]: 1740 ± 410 nM | Kd [3]: 34.6 ± 7.19 nM
B1: recombinant Np55 protein, extracellular domain (SinoBiological) (domain or fragment)
chain: QNEPRIVTSEEVIIRDSPVLPVTLQCNLTSSSHTLTYSYWTKNGVELSATRKNASNMEYRINKPRAEDSGEYHCVYHFVSAPKANATIEVKAAPDITGHKRSENKNEGQDATMYCKSVGYPHPDWIWRKKENGMPMDIVNTSGRFFIINKENYTELNIVNLQITEDPGEYECNATNAIGSASVVTVLRVRSHLAP
modifications: RED-NHS fluorescent label (in the MST assay only)
